From doi:10.1101/2024.03.03.583237 (bioRxiv, 2024)

Assays:
Assay in all cases: live-cell binding assay
SARS-CoV-2 NTD-mFc = SARS-CoV-2 NTD-mFc (SARS-CoV-2 Wuhan-Hu-1 (NC_045512), UniProt P0DTC2)
SARS-CoV-1 NTD-mFc = SARS-CoV-1 NTD-mFc (SARS-CoV-1 (NC_004718, Tor2), UniProt P59594)
ZC45 NTD-mFc = ZC45 NTD-mFc (Bat SARS-like coronavirus ZC45 …, UniProt A0A2R3SUW7)
RaTG13 NTD-mFc = RaTG13 NTD-mFc (Bat coronavirus RaTG13, UniProt A0ABF7PLN6)

B1: S2L20-CVR (scFv, V domains shown)
VH: EVQLVESGGGVVQPGGSLRLSCAASGFTFNSYGMHWVRQAPGKGLEWVAFIRYDGGNKYYADSVKGRFTISRDNSKNTLYLQMKSLRAEDTAVYYCANLKDSRYSGSYYDYWGQGTLVTVS
VL: not shown
B1: binds (SARS-CoV-2 NTD-mFc); no binding (SARS-CoV-1 NTD-mFc); no binding (ZC45 NTD-mFc). B1: binds (RaTG13 NTD-mFc).
